From patent publication US20240043505A1
Read-outs that look alike come from different tables or passages of the source.

Tests used:
Conditions in all cases: remark: other sources report otherwise
A475V = molecular target: A475V
K417N = molecular target: K417N
N439K = molecular target: N439K
N501Y = molecular target: N501Y
Y453F = molecular target: Y453F
[1] = molecular target: T1, SARS-CoV-2 spike receptor-binding domain (RBD) (SARS-CoV-2), P0DTC2
[2] = molecular target: T1, SARS-CoV-2 spike receptor-binding …; remark: listed apart in the source
[3] = molecular target: T1, SARS-CoV-2 spike receptor-binding …; test: SPR (Biacore 3000), RBD immobilised
[4] = molecular target: T1, SARS-CoV-2 spike receptor-binding …; test: indirect ELISA on coated RBD ('ELISA affinity')
[5] = molecular target: T1, SARS-CoV-2 spike receptor-binding …; test: ELISA; the sheet does not name the coated protein, the legend paragraph 51 says RBD
[6] = molecular target: T1, SARS-CoV-2 spike receptor-binding …; remark: listed apart in the source

B1: Nb21 (VHH)
VHH: QVQLVESGGGLVQAGGSLRLSCAVSGLGAHRVGWFRRAPGKEREFVAAIGANGGNTNYLDSVKGRFTISRDNAKNTIYLQMNSLKPQDTAVYYCAARDIETAEYTYWGQGTQVTVSS
A475V
  binding affinity fold change relative to RBD WT: -1.31 fold
K417N
  binding affinity fold change relative to RBD WT: -1.43 fold
N439K
  binding affinity fold change relative to RBD WT: 1.18 fold
N501Y
  binding affinity fold change relative to RBD WT: -2.83 fold
Y453F
  binding affinity fold change relative to RBD WT: 1.04 fold
[1]
  EC50 (read off the curve): 1 nM
[2]
  IC50: 0.42 nM
[3]
  Kd: < 1 pM
  koff: < 1e-06 s⁻¹
  kon: 3.79e+06 M⁻¹ s⁻¹
[4]
  IC50: 0.3 nM
[5]
  EC50 (read off the curve): 5 nM

B2: Nb17 (VHH)
VHH: HVQLVESGGGLVQAGGSLRLSCAASGSIFSSNAMSWYRQAPGKQRELVASITSGGNADYADSVKGRFTISRDKNTVYPEMSSLKPADTAVYYCHAVGQEASAYAPRAYWGQGTQVTVSS
A475V
  binding affinity fold change relative to RBD WT: 1.16 fold
K417N
  binding affinity fold change relative to RBD WT: -1.2 fold
N439K
  binding affinity fold change relative to RBD WT: 1.33 fold
N501Y
  binding affinity fold change relative to RBD WT: 1.5 fold
Y453F
  binding affinity fold change relative to RBD WT: 1.61 fold
[6]
  EC50 (read off the curve): 1 nM
[2]
  IC50: 0.69 nM
[4]
  IC50: 0.45 nM
